# Laboratory results published in publication PMC3433420.
# Values joined by “and” are separate entries in the source; they are usually repeats but may differ in a detail not shown here. Identical values can stand only once.
# Tests used:
# [1] = target: PLCG1 C-terminal SH2 domain (human); test: peptide or protein array; SH2/PTB proteins spotted on aldehyde slides, rhodamine peptide titrated in buffer B (20 mM HEPES, 100 mM KCl, 0.1% Tween-20, 5 mM DTT, pH 7.8), 1 h at room temperature; replicate assays
# [2] = target: RASA1 N-terminal SH2 domain (human) (UniProt P20936); test: as above
# RASA1 N-terminal SH2 domain (human), sequence (P20936 whole entry, the tested form may be a part): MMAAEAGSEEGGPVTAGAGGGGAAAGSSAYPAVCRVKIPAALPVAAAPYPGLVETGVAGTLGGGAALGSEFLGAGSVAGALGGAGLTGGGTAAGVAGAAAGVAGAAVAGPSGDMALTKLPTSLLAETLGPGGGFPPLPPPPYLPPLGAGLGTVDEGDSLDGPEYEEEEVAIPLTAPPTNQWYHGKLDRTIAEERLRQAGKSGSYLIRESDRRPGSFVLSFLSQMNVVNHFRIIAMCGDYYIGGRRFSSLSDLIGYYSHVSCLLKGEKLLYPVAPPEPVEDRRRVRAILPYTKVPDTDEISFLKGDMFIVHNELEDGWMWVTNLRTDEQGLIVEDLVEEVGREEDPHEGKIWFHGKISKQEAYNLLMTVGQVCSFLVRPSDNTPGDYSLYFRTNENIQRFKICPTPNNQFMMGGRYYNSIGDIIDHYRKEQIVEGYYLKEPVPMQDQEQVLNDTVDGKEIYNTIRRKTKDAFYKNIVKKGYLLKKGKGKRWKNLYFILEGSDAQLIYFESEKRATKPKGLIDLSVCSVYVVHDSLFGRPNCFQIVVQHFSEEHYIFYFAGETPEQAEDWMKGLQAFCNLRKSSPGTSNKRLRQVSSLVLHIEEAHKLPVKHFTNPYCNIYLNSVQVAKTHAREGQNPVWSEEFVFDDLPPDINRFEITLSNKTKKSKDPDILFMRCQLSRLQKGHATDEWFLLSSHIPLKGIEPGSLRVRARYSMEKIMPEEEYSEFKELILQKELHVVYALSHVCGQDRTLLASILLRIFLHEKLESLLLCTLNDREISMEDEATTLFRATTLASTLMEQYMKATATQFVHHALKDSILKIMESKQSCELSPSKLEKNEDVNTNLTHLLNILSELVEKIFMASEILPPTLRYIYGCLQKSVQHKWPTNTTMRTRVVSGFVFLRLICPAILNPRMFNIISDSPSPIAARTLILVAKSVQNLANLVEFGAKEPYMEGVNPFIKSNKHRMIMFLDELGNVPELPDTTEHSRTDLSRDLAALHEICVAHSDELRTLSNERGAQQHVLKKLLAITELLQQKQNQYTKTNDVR
# [3] = target: SH2D1A SH2 domain (human) (UniProt O60880); test: as above
# SH2D1A SH2 domain (human), sequence (O60880 6-104): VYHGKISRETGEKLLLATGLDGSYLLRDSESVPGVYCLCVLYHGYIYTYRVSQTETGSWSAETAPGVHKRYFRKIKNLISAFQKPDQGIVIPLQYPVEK
# [4] = target: PIK3R2 tandem SH2 domains (human) (UniProt O00459); test: as above
# PIK3R2 tandem SH2 domains (human), sequence (O00459 whole entry, the tested form may be a part): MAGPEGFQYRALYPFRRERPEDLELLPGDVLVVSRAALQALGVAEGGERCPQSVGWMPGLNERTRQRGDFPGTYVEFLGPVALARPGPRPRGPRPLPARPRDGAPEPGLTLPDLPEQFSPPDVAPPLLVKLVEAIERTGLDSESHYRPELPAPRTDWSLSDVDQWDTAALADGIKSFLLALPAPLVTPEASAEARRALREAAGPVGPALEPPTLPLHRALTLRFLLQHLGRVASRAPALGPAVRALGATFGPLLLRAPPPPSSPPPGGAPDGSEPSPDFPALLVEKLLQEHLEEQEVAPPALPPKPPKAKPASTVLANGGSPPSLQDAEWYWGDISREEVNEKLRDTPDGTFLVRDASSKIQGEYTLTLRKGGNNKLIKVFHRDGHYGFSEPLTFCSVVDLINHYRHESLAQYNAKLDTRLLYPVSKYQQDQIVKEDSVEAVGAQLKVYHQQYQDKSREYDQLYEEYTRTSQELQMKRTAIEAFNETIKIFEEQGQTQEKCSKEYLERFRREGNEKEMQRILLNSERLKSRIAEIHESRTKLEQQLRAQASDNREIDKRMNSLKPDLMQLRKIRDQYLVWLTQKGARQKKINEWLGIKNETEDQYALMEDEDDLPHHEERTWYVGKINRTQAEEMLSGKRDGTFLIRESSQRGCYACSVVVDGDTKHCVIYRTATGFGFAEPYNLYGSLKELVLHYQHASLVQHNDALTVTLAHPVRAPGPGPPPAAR
# [5] = target: NCK2 SH2 domain (human) (UniProt O43639); test: as above
# NCK2 SH2 domain (human), sequence (O43639 285-380): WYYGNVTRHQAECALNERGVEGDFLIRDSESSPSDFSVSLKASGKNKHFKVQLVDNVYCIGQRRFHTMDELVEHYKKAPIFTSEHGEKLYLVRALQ
# [6] = target: HSH2D SH2 domain (human) (UniProt Q96JZ2); test: as above
# HSH2D SH2 domain (human), sequence (Q96JZ2 34-125): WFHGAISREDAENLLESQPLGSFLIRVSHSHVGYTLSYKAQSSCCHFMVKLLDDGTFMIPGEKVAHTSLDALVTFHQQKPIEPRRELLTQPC
# [7] = target: PIK3R1 tandem SH2 domains (human) (UniProt P27986); test: as above
# PIK3R1 tandem SH2 domains (human), sequence (P27986 whole entry, the tested form may be a part): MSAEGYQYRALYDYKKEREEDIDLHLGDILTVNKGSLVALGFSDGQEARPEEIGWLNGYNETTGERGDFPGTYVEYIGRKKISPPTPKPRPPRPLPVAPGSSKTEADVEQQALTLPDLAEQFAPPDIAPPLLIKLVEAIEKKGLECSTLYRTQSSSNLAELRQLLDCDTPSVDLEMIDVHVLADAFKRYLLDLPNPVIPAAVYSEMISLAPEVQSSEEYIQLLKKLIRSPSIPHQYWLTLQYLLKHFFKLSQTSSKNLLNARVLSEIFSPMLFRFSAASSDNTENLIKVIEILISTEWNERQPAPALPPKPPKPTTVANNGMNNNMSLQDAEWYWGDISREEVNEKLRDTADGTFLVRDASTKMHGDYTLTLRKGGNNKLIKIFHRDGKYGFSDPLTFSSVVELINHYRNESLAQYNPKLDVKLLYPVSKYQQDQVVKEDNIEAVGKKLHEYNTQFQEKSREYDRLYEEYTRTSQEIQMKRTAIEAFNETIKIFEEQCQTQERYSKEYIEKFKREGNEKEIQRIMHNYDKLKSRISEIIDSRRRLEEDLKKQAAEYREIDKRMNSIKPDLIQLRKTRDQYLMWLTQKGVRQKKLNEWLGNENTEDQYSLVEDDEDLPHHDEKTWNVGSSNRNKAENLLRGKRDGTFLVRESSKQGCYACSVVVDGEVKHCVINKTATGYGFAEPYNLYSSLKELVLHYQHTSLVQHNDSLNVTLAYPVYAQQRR
# [8] = target: PLCG2 tandem SH2 domains (human); test: as above
# [9] = target: PIK3R3 tandem SH2 domains (human); test: as above
# [10] = target: ABL2 SH2 domain (human) (UniProt P42684); test: as above
# ABL2 SH2 domain (human), sequence (P42684 173-263): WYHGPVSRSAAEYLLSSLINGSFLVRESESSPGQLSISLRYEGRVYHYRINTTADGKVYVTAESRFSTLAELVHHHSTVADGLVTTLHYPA
# [11] = target: SH2D3A SH2 domain (human) (UniProt Q9BRG2); test: as above
# SH2D3A SH2 domain (human), sequence (Q9BRG2 15-114): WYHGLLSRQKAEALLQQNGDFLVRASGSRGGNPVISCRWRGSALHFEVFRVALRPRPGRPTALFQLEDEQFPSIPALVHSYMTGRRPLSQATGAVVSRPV
# [12] = target: VAV2 SH2 domain (human) (UniProt P52735); test: as above
# VAV2 SH2 domain (human), sequence (P52735 673-767): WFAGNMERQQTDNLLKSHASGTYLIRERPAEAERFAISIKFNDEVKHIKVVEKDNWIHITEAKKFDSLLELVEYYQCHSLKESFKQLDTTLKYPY
# [13] = target: RASA1 tandem SH2 domains (human); test: as above
# [14] = target: SHF SH2 domain (human) (UniProt Q7M4L6); test: as above
# SHF SH2 domain (human), sequence (Q7M4L6 323-418): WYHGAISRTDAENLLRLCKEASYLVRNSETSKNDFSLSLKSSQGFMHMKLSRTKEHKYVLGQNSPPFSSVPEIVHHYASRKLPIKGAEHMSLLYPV
# [15] = target: SRC SH2 domain (human) (UniProt P12931); test: as above
# [16] = target: ITK SH2 domain (human) (UniProt Q08881); test: as above
# ITK SH2 domain (human), sequence (Q08881 239-338): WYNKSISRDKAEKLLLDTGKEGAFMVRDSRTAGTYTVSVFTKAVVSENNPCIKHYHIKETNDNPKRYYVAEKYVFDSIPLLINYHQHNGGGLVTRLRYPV
# [17] = target: GRAP2 SH2 domain (human) (UniProt O75791); test: as above
# GRAP2 SH2 domain (human), sequence (O75791 58-149): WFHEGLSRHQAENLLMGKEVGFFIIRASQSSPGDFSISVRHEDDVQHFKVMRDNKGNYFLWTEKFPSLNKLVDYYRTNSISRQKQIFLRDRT
# [18] = target: PLCG1 tandem SH2 domains (human); test: as above
# [19] = target: LCK SH2 domain (human) (UniProt P06239); test: as above
# LCK SH2 domain (human), sequence (P06239 127-224): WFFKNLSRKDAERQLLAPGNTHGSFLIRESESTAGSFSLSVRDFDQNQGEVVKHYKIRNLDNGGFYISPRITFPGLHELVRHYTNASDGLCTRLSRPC
# [20] = target: SYK N-terminal SH2 domain (human); test: as above
# [21] = target: TNS3 SH2 domain (human) (UniProt Q68CZ2); test: as above
# TNS3 SH2 domain (human), sequence (Q68CZ2 1172-1282): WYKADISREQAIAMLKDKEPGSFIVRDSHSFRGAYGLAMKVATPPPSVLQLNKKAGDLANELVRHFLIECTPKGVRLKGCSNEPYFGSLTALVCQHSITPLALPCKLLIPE
# [22] = target: TEC SH2 domain (human) (UniProt P42680); test: as above
# TEC SH2 domain (human), sequence (P42680 247-345): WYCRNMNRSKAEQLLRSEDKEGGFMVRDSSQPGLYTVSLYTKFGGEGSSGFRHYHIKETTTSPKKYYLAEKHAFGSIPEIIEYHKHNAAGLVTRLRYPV
# [23] = target: GRB7 SH2 domain (human) (UniProt Q14451); test: as above
# GRB7 SH2 domain (human), sequence (Q14451 431-527): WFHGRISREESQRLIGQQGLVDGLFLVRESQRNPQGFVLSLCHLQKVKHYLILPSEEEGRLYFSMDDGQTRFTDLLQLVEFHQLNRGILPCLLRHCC
# [24] = target: PIK3R1 N-terminal SH2 domain (human); test: SPR; Biacore 3000; 6X His SH2 proteins held on a Ni-NTA chip, dye-free peptides in solution, equilibrium
# [25] = target: PLCG1 C-terminal SH2 domain (human); test: as above
# [26] = target: TNS3 SH2 domain (human) (UniProt Q68CZ2); test: as above
# [27] = target: SYK tandem SH2 domains (human); test: peptide or protein array; SH2/PTB proteins spotted on aldehyde slides, rhodamine peptide titrated in buffer B (20 mM HEPES, 100 mM KCl, 0.1% Tween-20, 5 mM DTT, pH 7.8), 1 h at room temperature; replicate assays
# [28] = target: TNS1 SH2 domain (human) (UniProt Q9HBL0); test: as above
# TNS1 SH2 domain (human), sequence (Q9HBL0 1567-1676): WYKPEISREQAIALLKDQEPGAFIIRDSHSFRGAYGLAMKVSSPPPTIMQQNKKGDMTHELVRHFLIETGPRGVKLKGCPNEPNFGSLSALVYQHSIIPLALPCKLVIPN
# [29] = target: SH3BP2 SH2 domain (human) (UniProt P78314); test: as above
# SH3BP2 SH2 domain (human), sequence (P78314 457-555): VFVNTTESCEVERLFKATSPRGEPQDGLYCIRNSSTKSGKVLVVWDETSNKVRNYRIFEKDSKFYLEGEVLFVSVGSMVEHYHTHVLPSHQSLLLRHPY
# [30] = target: BLK SH2 domain (human) (UniProt P51451); test: as above
# BLK SH2 domain (human), sequence (P51451 124-220): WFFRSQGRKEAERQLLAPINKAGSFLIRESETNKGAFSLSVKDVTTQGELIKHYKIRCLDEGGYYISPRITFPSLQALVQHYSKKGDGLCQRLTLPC
# [31] = target: FES SH2 domain (human) (UniProt P07332); test: as above
# FES SH2 domain (human), sequence (P07332 460-549): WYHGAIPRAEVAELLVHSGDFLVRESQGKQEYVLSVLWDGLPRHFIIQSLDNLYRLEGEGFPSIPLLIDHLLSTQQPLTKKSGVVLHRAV
# [32] = target: YES1 SH2 domain (human) (UniProt P07947); test: as above
# YES1 SH2 domain (human), sequence (P07947 158-255): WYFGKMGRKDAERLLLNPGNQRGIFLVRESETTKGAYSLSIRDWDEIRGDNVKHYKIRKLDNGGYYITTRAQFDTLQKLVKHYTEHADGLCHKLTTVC
# [33] = target: MET pY1313 phosphopeptide, rhodamine-labelled; test: fluorescence polarisation; saturation binding in solution: rhodamine peptide fixed at 10 nM, protein titrated 0.002-10 uM, 20 min at room temperature; assay buffer 20 mM HEPES, 100 mM KCl, 0.1% Tween-20, 5 mM DTT, pH 7.8; apparent KD
# [34] = target: ErbB1 pY900 phosphopeptide, rhodamine-labelled (human); test: as above
# [35] = target: ErbB1 pY801 phosphopeptide, rhodamine-labelled (human); test: as above
# [36] = target: ErbB1 pY978 phosphopeptide, rhodamine-labelled (human); test: as above
# [37] = target: ErbB4 pY833 phosphopeptide, rhodamine-labelled (human); test: as above
# [38] = target: SHC3 SH2 domain (human) (UniProt Q92529); test: SPR; Biacore 3000; 6X His SH2 proteins held on a Ni-NTA chip, dye-free peptides in solution, equilibrium
# SHC3 SH2 domain (human), sequence (Q92529 499-590): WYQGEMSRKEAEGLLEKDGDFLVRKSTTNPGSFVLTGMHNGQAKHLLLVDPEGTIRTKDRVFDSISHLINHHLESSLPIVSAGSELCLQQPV
# [39] = target: PIK3R3 C-terminal SH2 domain (human); test: as above
substance,measurement,setting,value
"ErbB4 pY1202 phosphopeptide (18-mer), rhodamine-labelled, for protein microarrays",Kd,[1],1260 nM
same,Kd,[2],662 nM
same,Kd,[3],30900 nM
same,Kd,[4],653 nM
same,Kd,[5],10100 nM
same,Kd,[6],967 nM
same,Kd,[7],167 nM and 544 nM
same,Kd,[8],408 nM and 605 nM and 1530 nM
same,Kd,[9],1720 nM and 1180 nM
same,Kd,[10],997 nM and 965 nM
same,Kd,[11],1000 nM
same,Kd,[12],9500 nM
same,Kd,[13],8560 nM
same,Kd,[14],11900 nM
same,Kd,[15],399 nM
same,Kd,[16],723 nM
"ErbB3 pY789 phosphopeptide, rhodamine-labelled, for protein microarrays",Kd,[17],1310 nM
same,Kd,[18],380 nM
same,Kd,[19],550 nM and 1140 nM and 1120 nM
same,Kd,[20],609 nM and 1330 nM
same,Kd,[21],802 nM
same,Kd,[22],1660 nM
same,Kd,[23],1190 nM
same,Kd,[11],170 nM and 401 nM and 402 nM
same,Kd,[15],1850 nM and 424 nM
same,Kd,[16],1160 nM
"ErbB1 pY801 phosphopeptide, dye-free",Kd,[24],2800 nM
same,Kd,[25],2330 nM
same,Kd,[26],916 nM
"ErbB3 pY1132 phosphopeptide, rhodamine-labelled, for protein microarrays",Kd,[20],2400 nM
same,Kd,[2],5150 nM
same,Kd,[27],785 nM and 4980 nM
same,Kd,[8],1190 nM
same,Kd,[9],7.73 nM
same,Kd,[23],10 nM
same,Kd,[28],1.44 nM
same,Kd,[29],6400 nM
same,Kd,[30],199 nM
same,Kd,[31],3200 nM
same,Kd,[32],735 nM and 2260 nM
PLCG1 C-terminal SH2 domain (domain or fragment),Kd,[33],2280 nM
same,Kd,[34],15500 nM
same,Kd,[35],9440 nM
same,Kd,[36],1370 nM
same,Kd,[37],4730 nM
"ErbB4 pY906 phosphopeptide, dye-free",Kd,[38],6710 nM
same,Kd,[39],566 nM
